These results are taken from publication doi:10.1101/2025.04.02.646771.

The assay addresses Leminorella grimontii GatC (Leminorella grimontii). As to the kind of experiment: crystal structure.

In turn, “Leminorella grimontii GatC (natural protein)” returned a stoichiometry N of 2.

Broadly, the stoichiometry N is a count of units in the complex or per binding partner.
